Data as given in patent US20170086465A1 (TECHNION RESEARCH AND DEVELOPMENT FOUNDATION, published 2017).

Biological target: the molecule itself
Experiment: cell-based or functional assay

B1: C. elegans aff-1 fused to a C-terminal FLAG tag (AFF-1::FLAG) (other)
chain: RLRRHHRKRRFVSSNFDEFYCGESAHAQSQFEEERESNSSKVSSVHSTQFNWGLDNTICIKLQNVVHVLKYERLEQRYPIENSYTFSVPLIDTNCKCHCYGFGTNDVCNVEKYADDRNCTTSSEFPTCYTKYHPAVEPLDCPVTSIPAKACCDIKLKPRDGRMFRAVKLQQPINDMIISHSIFANNSGKMMKVLGPDEFRINLLKGKEQFELTEYHRISVQLVASSPQQQLREGMYYFPEENHNDLREGKINEITESDLDKLGWYRRVGNDWQVATSGLLLRNAHKVVIKNCKGQVHMDQFSGTKNFVLRGTQYNDTYNERRVSDNNFVRSVKVDESSREITIVHEHGTAAQVSLKTDTRPNLTKSQSLLANFTGSITLDHDGNRMLNVTFFGVKGTVHIKMYVNDRKLIATFACTAQFGTSLKDDGSRISLPSTINQAQWVCILPDEQPTKSEICKWIPYEEKAMRTPRQEQSWSKGHSPCSQAECNSLKSGVSDLFPWIMNFDYFMAHGGDFTEWLKIGIHIVIAVGLLLLLILLFTKCLVPLACCSLSIPFKNRNKKKKKKNSSDY
Q: For B1, which “infection of BHK-AFF-1 cells by VSVΔG-AFF-1 pseudovirus (GFP-expressing cells)” value is on record?
A: The value was 600 fold.
